From patent US20090280138A1 (OXFORD BIOMEDICA UK, published 2009)
Like-named read-outs stand apart in the source and are kept apart here.

Tests used:
[1] = biological target: T1, MHC class I allele A*0201 monomer (human, biotinylated, bound to streptavidin-coated plate); test: iTopia, multiparametric iScore
T1 construct: also called A2; HLA-A2
Method: (§1) The 9 mers were tested for Peptide Binding, Off Rate and Affinity using iTopia Epitope Discovery System in accordance with the manufacturer's instructions. Briefly, 96 well microtitre plates coated with MHC molecules representing different MHC alleles are used to identify candidate peptides. […] Determinations are performed in duplicate using an ELISA plate reader and included allele specific positive controls.
(§2) Finally, multiparametric analysis is performed on the results from these assays and an iScore is generated. The iScore represents a measure of the overall quality of peptide-MHC binding, enabling candidate peptides to be ranked in order of binding quality and allowing rational prioritisation of peptides for functional cellular follow-up studies.

[2] = biological target: T2, MHC class I molecule A*0201 (biotin (bound via biotin to streptavidin-coated plates)); test: iTopia affinity assay (ED50), peptide titration on plate-bound MHC
T2 construct: also called A2; HLA-A2
Method: as §1
(§3) Dose-response curves of peptide binding to MHC were prepared by peptide titration to determine the ED50 measurement for each peptide. Values for the concentrations tested (in duplicate) were obtained as a percentage of the highest (9000×) concentration of the positive control peptide. A dose-response curve was generated using GraphPad Prism® curve fitting software, which automatically calculated the ED50 (in Molarity) for each peptide.

[3] = biological target: T3, MHC class I molecule B*0702 (biotin (bound via biotin to streptavidin-coated plates)); test: as above
T3 construct: Methods name B*0702 as the allele used; also called B7; HLA-B7
Method: as §1, §3

[4] = biological target: T4, MHC class I allele A*0101 monomer (human, biotinylated, bound to streptavidin-coated plate); test: iTopia, multiparametric iScore
T4 construct: placeholder peptide and b2M removed, then reconstituted with test peptide and fresh b2M; also called A1; HLA-A1
Procedure, shortened: (§4)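 9-mer peptides were tested on plates coated with MHC molecules, measuring binding, off-rate and affinity by ELISA in duplicate with allele-specific positive controls.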

[5] = biological target: T5, MHC class I allele B*0702 monomer (human, biotinylated, bound to streptavidin-coated plate); test: iTopia, multiparametric iScore
T5 construct: also called B7; HLA-B7
Procedure, shortened: as §4

[6] = biological target: T6, MHC class I allele A*0301 monomer (human, biotinylated, bound to streptavidin-coated plate); test: iTopia, multiparametric iScore
T6 construct: also called A3; HLA-A3
Procedure, shortened: as §4

[7] = biological target: T1, MHC class I allele A*0201 monomer; test: iTopia, multiparametric iScore; remark: listed apart in the source
Procedure, shortened: as §4

[8] = biological target: T5, MHC class I allele B*0702 monomer; test: iTopia, multiparametric iScore; remark: listed apart in the source
Method: as §1, §2

[9] = biological target: T7, MHC class I molecule HLA-A*0201 (iTopia plate-bound monomer) (biotin (bound to streptavidin-coated plate)); test: iTopia off-rate assay, 37 C; fit R^2 0.93
T7 construct: also called A2
Method: as §1
A one-phase exponential decay curve, with a plateau given equal to 0, was generated using GraphPad Prism® software, which calculated the t1/2 and goodness-of-fit, as measured by r², for each peptide.

[10] = biological target: T8, MHC class I molecule A*0101 (biotin (bound via biotin to streptavidin-coated plates)); test: iTopia affinity assay (ED50), peptide titration on plate-bound MHC
T8 construct: also called A1; HLA-A1
Method: as §1, §3

ILNHIVPPE [5T4 9-mer peptide 90] gave an iScore [1] of 0.426.

LAELAALNL [5T4 9 mer peptide 59 (LAELAALNL)] gave an EC50 [2] of 2 µM and an EC50 [3] of 20 µM.

VFLGIVLAL (also called VFLGIVLAL) [5T4 9-mer peptide 179] showed an iScore [4] of 0, an iScore [5] of 0 and an iScore [6] of 0. It also gave an iScore [7] of 0.606 and an iScore [1] of 0.606.

GAFARRPPL [5T4 9-mer peptide 55] showed an iScore [8] of 0.359.

Work on VLYLNRKGI [5T4 9-mer peptide 187] yielded an iScore [4] of 0, an iScore [5] of 0.164 and an iScore [6] of 0.017. For the same binder, the iScore [7] was 0.095 and the iScore [8] was 0.164.

PLADLSPFA [5T4 9 mer peptide 77 (PLADLSPFA)] gave an EC50 [2] of 2 µM.

Binder PALCECSEA [5T4 9 mer peptide 32 (PALCECSEA)] has an EC50 [2] of 4 µM.

With AFSGSNASV [5T4 9 mer peptide 81 (AFSGSNASV)] the EC50 [2] was 7 µM.

In the case of SLQTSYVFL [5T4 9-mer peptide 176], the iScore [4] is reported as 0, the iScore [5] is reported as 0 and the iScore [6] is reported as 0. It also gave an iScore [7] of 0.561 and an iScore [1] of 0.561.

With GLRRLELAS [5T4 9-mer peptide 106 GLRRLELAS] the t½ half life [9] was 0.4 h.

In the case of AALLAGRAL (also called AALLAGRAL) [5T4 9-mer peptide 101], the iScore [8] is reported as 0.238.

Work on FLTGNQLAV [5T4 9 mer peptide 49 (FLTGNQLAV)] yielded an EC50 [2] of 1 µM.

In the case of QTSYVFLGI [5T4 9 mer peptide 177 (QTSYVFLGI)], the EC50 [10] is reported as 20 µM.

LPRDVLAQL [5T4 9 mer peptide 113 (LPRDVLAQL)] gave an EC50 [3] of 10 µM.

In the case of GAFARRPPL [5T4 9 mer peptide 55 (GAFARRPPL)], the EC50 [2] is reported as 0.8 µM and the EC50 [3] is reported as 10 µM.

With RLDEVRAGA [5T4 9-mer peptide 65] the iScore [1] was 0.422.

With PLADLSPFA [5T4 9-mer peptide 77] the iScore [1] was 0.556.

ILNHIVPPE [5T4 9 mer peptide 90 (ILNHIVPPE)] gave an EC50 [2] of 6 µM.

In the case of RLRLARLAL (also called RLRLARLAL) [5T4 9-mer peptide 8], the iScore [8] is reported as 1.

In the case of LPAYVRNLF [5T4 9-mer peptide 45], the iScore [8] is reported as 0.389.

With LIGAIFLLV [5T4 9-mer peptide 183] the iScore [4] was 0, the iScore [5] was 0 and the iScore [6] was 0.07. For the same binder, the iScore [1] was 1.9.

Binder LALIGAIFL [5T4 9-mer peptide 182] has an iScore [4] of 0, an iScore [5] of 0.067 and an iScore [6] of 0. For the same binder, the iScore [7] was 0.425 and the iScore [1] was 0.425.

For AALLAGRAL [5T4 9 mer peptide 101 (AALLAGRAL)], the EC50 [2] was 4 µM and the EC50 [3] was 7 µM.

LPAYVRNLF [5T4 9 mer peptide 45 (LPAYVRNLF)] gave an EC50 [3] of 2 µM.

Work on APFLASAVS [5T4 9 mer peptide 23 (APFLASAVS)] yielded an EC50 [2] of 20 µM and an EC50 [3] of 20 µM.

ILPPSLQTS (also called Peptide No 174) [5T4 9-mer peptide 174 ILPPSLQTS] gave a t½ half life [9] of 5 h.

LPSLRQLDL [5T4 9 mer peptide 71 (LPSLRQLDL)] gave an EC50 [2] of 5 µM and an EC50 [3] of 3 µM.

LPSLRHLDL [5T4 9 mer peptide 117 (LPSLRHLDL)] was tested, and the EC50 [2] was 20 µM and the EC50 [3] was 5 µM.

LDLSNNSLV [5T4 9 mer peptide 120 (LDLSNNSLV)] showed an EC50 [2] of 20 µM.

Binder HMADMVTWL [5T4 9-mer peptide 151] has an iScore [4] of 0, an iScore [5] of 0 and an iScore [6] of 0. It also gave an iScore [7] of 0.821 and an iScore [1] of 0.821.

With LALVLLGWV (also called Peptide No 11) [5T4 9-mer peptide 11 LALVLLGWV] the t½ half life [9] was 1.6 h.

GMVVAALLA [5T4 9-mer peptide 99] was tested, and the iScore [1] was 0.384.

With SSAPFLASA [5T4 9 mer peptide 22 (SSAPFLASA)] the EC50 [2] was 0.3 µM.

Work on YPEKMRNRV [5T4 9-mer peptide 163] yielded an iScore [4] of 0, an iScore [5] of 0.242 and an iScore [6] of 0. For the same binder, the iScore [7] was 0 and the iScore [8] was 0.242.

APFLASAVS [5T4 9-mer peptide 23] showed an iScore [8] of 0.176.

In the case of SSAPFLASA [5T4 9-mer peptide 22], the iScore [1] is reported as 0.389.

YVSFRNLTH [5T4 9-mer peptide 126] gave an iScore [4] of 0, an iScore [5] of 0.21 and an iScore [6] of 0.086. It also gave an iScore [7] of 0 and an iScore [8] of 0.21.

LAELAALNL [5T4 9-mer peptide 59] was tested, and the iScore [1] was 0.72.

In the case of GMVVAALLA [5T4 9 mer peptide 99 (GMVVAALLA)], the EC50 [2] is reported as 0.6 µM.

In the case of PPLAELAAL (also called PPLAELAAL) [5T4 9-mer peptide 58], the iScore [8] is reported as 0.145.

In the case of GMVVAALLA (also called Peptide No 99) [5T4 9-mer peptide 99 GMVVAALLA], the t½ half life [9] is reported as 1.8 h.

With PPLAELAAL [5T4 9 mer peptide 58 (PPLAELAAL)] the EC50 [2] was 40 µM and the EC50 [3] was 30 µM.

In the case of PLADLSPFA (also called Peptide No 77) [5T4 9-mer peptide 77 PLADLSPFA], the t½ half life [9] is reported as 4.8 h.

In the case of FSSSAPFLA [5T4 9 mer peptide 21 (FSSSAPFLA)], the EC50 [10] is reported as 20 µM.

In the case of LPSLRQLDL [5T4 9-mer peptide 71], the iScore [8] is reported as 0.454.

LPSLRHLDL [5T4 9-mer peptide 117] gave an iScore [8] of 0.445.

For SPTSSASSF [5T4 9-mer peptide 17], the iScore [8] was 0.335.

ILPPSLQTS [5T4 9-mer peptide 174] showed an iScore [4] of 0, an iScore [5] of 0 and an iScore [6] of 0. For the same binder, the iScore [7] was 0.523 and the iScore [1] was 0.523.

LPRDVLAQL [5T4 9-mer peptide 113] gave an iScore [8] of 0.305.

SLRHLDLSN [5T4 9-mer peptide 118 SLRHLDLSN] gave a t½ half life [9] of 0.4 h.

VFLDNNPWV [5T4 9-mer peptide 145 VFLDNNPWV] showed a t½ half life [9] of 1.2 h.

Work on RGPAAGDGR (also called Peptide No 4) [5T4 9-mer peptide 4 RGPAAGDGR] yielded a t½ half life [9] of 1.2 h.

In the case of FLTGNQLAV [5T4 9-mer peptide 49], the iScore [1] is reported as 0.791.

SPTSSASSF [5T4 9 mer peptide 17 (SPTSSASSF)] gave an EC50 [3] of 2 µM.
